Numbering of substitutions follows the chain as printed.

T1: cytoplasmic domain-lacking human NR10 on CHO cells (hNR10-expressing CHO cells) (human, UniProt Q8NI17 20-553)
T1 construct: also called NR10-expressing cells
T1 sequence: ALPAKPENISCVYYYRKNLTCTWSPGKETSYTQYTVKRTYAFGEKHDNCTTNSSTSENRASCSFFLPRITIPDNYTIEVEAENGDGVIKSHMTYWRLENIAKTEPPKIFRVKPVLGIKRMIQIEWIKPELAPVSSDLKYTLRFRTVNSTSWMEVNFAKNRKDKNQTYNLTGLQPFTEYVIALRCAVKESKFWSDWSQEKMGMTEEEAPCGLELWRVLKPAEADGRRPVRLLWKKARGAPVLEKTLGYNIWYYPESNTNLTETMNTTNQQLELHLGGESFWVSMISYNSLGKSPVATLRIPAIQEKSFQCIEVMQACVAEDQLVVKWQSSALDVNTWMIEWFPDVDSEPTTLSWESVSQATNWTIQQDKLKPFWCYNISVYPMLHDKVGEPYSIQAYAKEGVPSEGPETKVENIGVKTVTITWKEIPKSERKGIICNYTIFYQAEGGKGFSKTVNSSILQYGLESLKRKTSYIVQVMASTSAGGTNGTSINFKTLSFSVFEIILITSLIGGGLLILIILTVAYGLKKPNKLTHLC

B1: Hp8 variant of H0L0 (antibody, V domains shown)
VH: QVQLVQSGAEVKKPGASVKVSCKASGYTFTGYIMNWVRQAPGQGLEWMGLIDPYNGGTSYNQKFKGRVTITADESTSTAYMELSSLRSEDTAVYYCARDGYDDGPYTMDYWGQGTLVTVSS
VL: DIQMTQSPSSLSASVGDRVTITCRTSENIYSFLAWYQQKPGKAPKLLIYNAKTLAKGVPSRFSGSGSGTDFTLTISSLQPEDFATYYCQHHYESPLTFGGGTKVEIK
B2: Lp7 variant of H0L0 (antibody, V domains shown)
VH: B1 VH with D52N
VL: B1 VL with L54E
B3: Lp3 variant of H0L0 (antibody, V domains shown)
VH: B1 VH with D52N
VL: B1 VL with N50D
B4: Lp2 variant of H0L0 (antibody, V domains shown)
VH: B1 VH with D52N
VL: B1 VL with N28D
B5: Lp1 variant of H0L0 (antibody, V domains shown)
VH: B1 VH with D52N
VL: B1 VL with R24Q
B6: Hp9 variant of H0L0 (antibody, V domains shown)
VH: B1 VH with D52N, K63Q
VL: B1 VL
B7: Lp4 variant of H0L0 (antibody, V domains shown)
VH: B1 VH with D52N
VL: B1 VL with K52Q
B8: Hp13 variant of H0L0 (antibody, V domains shown)
VH: B1 VH with D52N, K65Q, G66D
VL: B1 VL

In the assay the target is T1, cytoplasmic domain-lacking human NR10 …. In words: FMAT competition on hNR10-expressing CHO cells: antibody titrated against FMAT Blue-labeled hIL-31; FL1 = cell-bound labeled hIL-31; mean±S.D. (n=3). As for the experimental part:
Antibodies were assessed for the activity of inhibiting the IL-31/NR10 binding by using hNR10-expressing CHO cells as described below. The chimeric NS22 antibody and NS22_H0L0 (H chain, H0-SKSC/SEQ ID NO: 54; L chain, L0/SEQ ID NO: 56) were diluted at an appropriate concentration using Assay buffer (10 mM HEPES, 140 mM NaCl, 2.5 mM CaCl₂, 3 mM MgCl₂, 2% FBS, 0.01% NaN₃, pH7.4), and further eight serial dilutions were prepared at a common dilution ration of 2. The dilutions were added at 40 μl/well to plates (96-Well FMAT Plates, Applied Biosystems). Then, FMAT Blue-labeled hIL-31 was diluted 400 times with Assay buffer, and added at 20 μl/well. Finally, a cell suspension adjusted to 2.5×10⁵ cells/ml using Assay buffer was added at 40 μl/well (final 1×10⁴ cells/well). Two hours after addition of cells, the fluorescence (FL1) was measured using the 8200 Cellular Detection System (Applied Biosystems).
Each variant was tested for the activity of inhibiting the hIL-31/hNR10 binding by using FMAT. The test was carried out according to the method as described in Example 4.
Regarding B1, the binding result is “binds”.

With B2, the binding result was “binds”.

Take B3: the binding result is “binds”.

As to B4, the binding result was “binds”.

B5: the binding result is given as “binds”.

As for B6, the “IC50 (read off the curve)” value is about 0.1 µg/mL.

With B7, the binding result is on record as “binds”.

Take B8: the binding result was “binds”.

(Values after patent publication US20110129459A1 (Chugai, published 2011).)
